B1: SPA1-M13 (XNA)
DNA: GGGTGAATCTATGGGGTGGGCAGGGG
B2: SPA1-M12 (XNA)
DNA: GGGTGAATCTATGGGGTGGGCAGGGG

Assays:
[1] = target: SARS-CoV-1 RBD (SARS-CoV-1, UniProt P59594 306-527); details: protein: commercial; label: 3'-biotin-TEG (SPR)
[2] = target: MERS-CoV RBD (MERS-CoV, UniProt K9N5Q8 367-606); details: protein: commercial; label: 3'-biotin-TEG (SPR)
[3] = target: SARS-CoV-2 spike S1 subunit (SARS-CoV-2, UniProt P0DTC2 16-685); assay: SPR; details: protein: commercial

Binder	Kd [1]	Kd [2]	binding result [3]
B1	8.7 nM	4 nM	
B2			binds
